These results are taken from PMC6150735, “Molecular Docking-Based Design and Development of a Highly Selective Probe Substrate for UDP-glucuronosyltransferase 1A10” (Molecular Pharmaceutics, 2018).

For data set [1], the system named is human intestinal microsomes (HIM). Put plainly: Glucuronidation by human intestinal microsomes (HIM). It counts as in vitro ADME. The note with it: 10 μM aglycone. The method, then:
(§1) A commercial HLM pool (cat no:452210, BD Gentest, Bedford, MA) and human intestine microsomes (HIM) pool (lot. no 1110189, XenoTech, Kansas City, KS) were purchased. Pig liver samples were prepared from untreated female pigs that were used for practicing surgical procedures at the University of Kuopio (currently: University of Eastern Finland, Kuopio campus). Other animal liver microsomes were prepared as described previously.[41] The Ethics Committee for Animal Experiments, University of Kuopio, approved these experiments.
(§2) The incubation mixtures for glucuronidation assays contained 100 mM Tris-HCl buffer pH 7.4, 2.5 mM MgCl2, 0.5 mM UDPGA, recombinant UGT, or microsomes as the enzyme source and 0–15 μM of the test aglycone substrate. When the incubation mixtures contained microsomes, alamethicin was used at a final concentration of 12.5 μg/mL, but it was not included in the recombinant enzyme assays.[43] In the first experiments three negative control samples were tested, namely (i) without the substrate 7-hydroxycoumarin derivative, (ii) without the cofactor UDPGA, or (iii) without the enzyme source. In subsequent experiments, the control samples lacked the enzyme source since it gave the highest fluorescence background. Preliminary experiments were done under different conditions than most of the later assays, namely in 2.5 mL of 100 mM phosphate buffer pH 7.4, containing 500 μg pig liver microsomes, 1.0 μM compound 6 and 0.5 mM UDPGA, at room temperature. Fluorescence spectra (excitation 200–420 nm; emission 400–600 nm) or fluorescence decrease at 390 nm excitation and 460 nm emission, were measured in these preliminary experiments, using a Shimadzu RF-5000 spectrophotofluorometer.
(§3) Most of the glucuronidation assays were carried out in 96 multiwell plate format, and incubations were carried out in 100 μL and at 37 °C, in the presence of Tris–HCl buffer pH 7.4, UDPGA, and the tested 7-hydroxycoumarin derivative, at the indicated concentrations. Fluorescence decline in the multiwell plate experiments was monitored every other minute, for 40 min, using an excitation filter at 405 nm and detection at 460 nm, in a Victor2 1420 Multilabel counter (PerkinElmer, Life Sciences, Turku, Finland). The fluorescence values were transformed into molarity using the aglycone substrates for making the respective standard curves. Slopes of the substrate concentration decrease per minute were calculated using linear regression analysis, in which the linear part of the kinetic assay indicated the glucuronidation rate. Enzyme catalyzed glucuronidation rate was calculated by subtracting the blank value from the full reaction value. The intra-assay variability of the kinetic assays was 6% when compound 6 was used as the aglycone substrate. Kinetic analyses were also performed in the same 96 multiwell plates format, with excitation filter at 405 nm and detection at 460 nm, using 6–8 different substrate concentrations per substrate and two different protein concentrations for both the wild-type and mutant UGT1A10. The higher concentrations, 13.5 mg/L for UGT1A10 and 12.0 mg/L for the UGT1A10 mutant, were used when the substrates were HFC, compounds 4 and 6, whereas the lower protein concentrations, 6.75 and 6.0 mg/L for UGT1A10 and the mutant, respectively, were used when the substrates were compounds 1, 2, 3, and 5.

Data set [2] deals with human UGTs. Description: Recombinant human UGT screen: glucuronidation rates across human UGTs. The data set is classed as biochemical. The note with it: 10 μM aglycone; for Selectivity among human UGTs: other UGTs at very low rates. The method, then: (§4) Recombinant human UGTs 1A1, 1A3, 1A6, 1A7, 1A8, 1A9, 1A10, 2A1, 2A2, 2A3, 2B4, 2B10, 2B7, and 2B17 were produced, as His-tagged proteins, in baculovirus-infected insect cells as previously described.[37]−[39] The relative expression level of each of these recombinant UGTs was evaluated by immunodetection, using monoclonal antibody against the His-tag, as described elsewhere.[40] A numeric value of 1.0 was given to the expression level of UGT1A8 and the relative expression level of each of the other UGTs was related to this value. Normalized activities were obtained by dividing the glucuronidation rate values by the relative expression level of the tested UGT. In addition, UGTs 1A4, 2B10, and 2B15 were purchased from Corning Life Sciences (New York) and are marked, in Figure 5, with a “C” to indicate that they are commercial enzymes. The expression levels of the UGTs in the commercial samples could not be determined, so their protein concentration was used to calculate the reaction rate.
as §2, §3

Data set [3] can be described thus: Excitation and emission fluorescence spectra of coumarin derivatives. The data set is classed as physicochemical. Also on record: dose or concentration left out as unconfirmed. The method, then:
The absorbance spectra of 10 μM coumarin derivatives at 100 mM Tris–HCl pH 7.4 containing 10% dimethyl sulfoxide were measured using a Hitachi U-2000 Spectrophotometer (Tokyo, Japan). […] The excitation spectra was from 200 to 420 at 460 nm emission and the emission spectra was from 400 to 600 at 390 nm excitation (data in Supplementary Table S1 and Figures S1 and S2). The effect of pH on fluorescence intensity was determined at 405 nm excitation and 460 nm emission, in the presence of 1.5% trichloroacetic acid, 100 mM phosphate buffers at pH 5, 6, 7, 8, and 9, or 1.6 M glycine–NaOH pH 10.4.

A short description of data set [4]: Absorbance spectra of coumarin derivatives. The note with it: 10 μM, 100 mM Tris–HCl pH 7.4, 10% dimethyl sulfoxide. It counts as physicochemical. The method, then: The absorbance spectra of 10 μM coumarin derivatives at 100 mM Tris–HCl pH 7.4 containing 10% dimethyl sulfoxide were measured using a Hitachi U-2000 Spectrophotometer (Tokyo, Japan). Excitation and emission fluorescence spectra of 0.1 μM coumarin derivatives in 100 mM Tris-HCl pH 7.4 were measured using a Shimadzu RF-5000 spectrophotofluorometer (Tokyo, Japan). The excitation spectra was from 200 to 420 at 460 nm emission and the emission spectra was from 400 to 600 at 390 nm excitation (data in Supplementary Table S1 and Figures S1 and S2). The effect of pH on fluorescence intensity was determined at 405 nm excitation and 460 nm emission, in the presence of 1.5% trichloroacetic acid, 100 mM phosphate buffers at pH 5, 6, 7, 8, and 9, or 1.6 M glycine–NaOH pH 10.4.

The subject of data set [5] is human liver microsomes (HLM). Put plainly: Glucuronidation by human liver microsomes (HLM). The data set is classed as in vitro ADME. The note with it: 10 μM aglycone. The method, then:
as §1, §2, §3

Substrate in data set [6]: O=c1oc2cc(O)ccc2cc1-n1cncn1
Description: Glucuronidation kinetics by recombinant wild-type UGT1A10 (fluorescence decrease, 96-well plate). The data set is classed as biochemical, human. The note with it: other: UGT1A10 wild-type, 7-hydroxyl glucuronidation, Michaelis–Menten, one experiment; pH 7.4; 37.0 °C. The method, then: as §4, §2, §3

Substrate in data set [7]: O=c1cc(C(F)(F)F)c2ccc(O)cc2o1
Described as above. It counts as biochemical, human. The conditions noted are these: other: UGT1A10 wild-type, 7-hydroxyl glucuronidation, Michaelis–Menten, one experiment; pH 7.4; 37.0 °C. Here is the method: as §4, §2, §3

Substrate in data set [8]: O=c1oc2cc(O)ccc2cc1-c1ccc(O)cc1
The description is as above. The data set is classed as biochemical, human. The note with it: other: UGT1A10 wild-type, 7-hydroxyl glucuronidation, Michaelis–Menten, one experiment; pH 7.4; 37.0 °C. The method, then: as §4, §2, §3

Substrate in data set [9]: Cc1ccc(-c2cc3ccc(O)cc3oc2=O)cc1
The description is as above. It counts as biochemical, human. The conditions noted are these: other: UGT1A10 wild-type, 7-hydroxyl glucuronidation, Michaelis–Menten, one experiment; pH 7.4; 37.0 °C. The method, then:
as §4, §2, §3

Substrate in data set [10]: COc1ccc(-c2cc3ccc(O)cc3oc2=O)cc1
The data set is described as above. The data set is classed as biochemical, human. The note with it: other: UGT1A10 wild-type, 7-hydroxyl glucuronidation, Michaelis–Menten, one experiment; pH 7.4; 37.0 °C. Here is the method: as §4, §2, §3

Substrate in data set [11]: CN(C)c1ccc(-c2cc3ccc(O)cc3oc2=O)cc1
The data set is described as above. It counts as biochemical, human. The conditions noted are these: other: UGT1A10 wild-type, 7-hydroxyl glucuronidation, Michaelis–Menten, one experiment; pH 7.4; 37.0 °C. The method, then:
as §4, §2, §3

Substrate in data set [12]: O=c1oc2cc(O)ccc2cc1-c1ccc(F)cc1
The data set is described as above. The data set is classed as biochemical, human. The note with it: other: UGT1A10 wild-type, 7-hydroxyl glucuronidation, Michaelis–Menten, one experiment; pH 7.4; 37.0 °C. The method, then:
as §4, §2, §3

“Also recorded” adds a separate entry of the source.

Consider `O=c1ccc2ccc(O)cc2o1` [7-hydroxycoumarin, reference compound], for which the “Glucuronidation rate, HLM compared with HIM (in words)” value in data set [1] was “much higher rates by HLM than by HIM”. In addition, in [2] (control substrates), the “UGT(s) that primarily glucuronidate the substrate” value was “UGT1A6”.

Regarding `CN(C)c1ccc(-c2cc3ccc(O)cc3oc2=O)cc1` [Compound 4, 7-Hydroxy-3-(4-(dimethylamino)phenyl)-2H-chromen-2-one], the “Fluorescence EMmax” value in [3] is listed as 457 nm. In data set [4], the Amax is 370 nm and the ε abs was determined as 22900 M⁻¹ cm⁻¹. Also, the “Selectivity among human UGTs” value in data set [2] was “selective for UGT1A10”. The “Glucuronidation by HLM (in words)” value in data set [5] is recorded as “not glucuronidated by HLM at all, or only at very low rates; also recorded: very low or below the detection limit”.

For `Cc1ccc(-c2cc3ccc(O)cc3oc2=O)cc1` [Compound 5, 7-Hydroxy-3-(p-tolyl)-2H-chromen-2-one], in [3], the “Fluorescence EMmax” value is reported as 462 nm and the “Fluorescence EXmax” value is 358 nm. In [4], this molecule yielded an Amax of 347 nm and a ε abs of 19500 M⁻¹ cm⁻¹. For the same molecule, the “Selectivity among human UGTs” value in [2] is “selective for UGT1A10”.

B1: UGT1A10 (Homo sapiens) (protein)
chain: GKLLVVPMDGSHWFTMQSVVEKLILRGHEVVVVMPEVSWQLERSLNCTVKTYSTSYTLEDQNREFMVFAHAQWKAQAQSIFSLLMSSSSGFLDLFFSHCRSLFNDRKLVEYLKESSFDAVFLDPFDTCGLIVAKYFSLPSVVFTRGIFCHHLEEGAQCPAPLSYVPNDLLGFSDAMTFKERVWNHIVHLEDHLFCQYLFRNALEIASEILQTPVTAYDLYSHTSIWLLRTDFVLDYPKPVMPNMIFIGGINCHQGKPLPMEFEAYINASGEHGIVVFSLGSMVSEIPEKKAMAIADALGKIPQTVLWRYTGTRPSNLANNTILVKWLPQNDLLGHPMTRAFITHAGSHGVYESICNGVPMVMMPLFGDQMDNAKRMETKGAGVTLNVLEMTSEDLENALKAVINDKSYKENIMRLSSLHKDRPVEPLDLAVFWVEFVMRHKGAPHLRPAAHDLTWYQYHSLDVIGFLLAVVLTVAFITFKCCAYGYRKCLGKKGRVKKAHKSKTH
notes: His-tag; made in house; host or cells: baculovirus-infected insect cells
Consider B1, for which the Km in data set [6] is given as 7.0 (3.1–11) μM; in data set [7], 14 (10.7–17.3) μM; in data set [8], 2.2 (1–3.4) μM; in data set [9], 2.8 (0.7–4.9) μM; in [10] it was 8.3 (0–31.4) μM; in [11], 2.8 (0–6.5) μM. The Km in data set [12] is given as 10.7 (1.7–19.6) μM. Further, the maximal velocity (Vmax) turned out to be 0.0053 µmol/min/mg in [6]; 0.0151 µmol/min/mg in [7]; 0.0059 µmol/min/mg in data set [8]; 0.0162 µmol/min/mg in data set [9]; 0.0223 µmol/min/mg in [10]; 0.0153 µmol/min/mg in data set [11]. Besides, the maximum rate (Vmax) in data set [12] came out at 0.031 µmol/min/mg. For the same molecule, the Vmax/Km was 760 µL/min/mg in data set [6]; 1100 µL/min/mg in data set [7]; 2700 µL/min/mg in data set [8]; 5800 µL/min/mg in [9]; 2700 µL/min/mg in [10]; 5500 µL/min/mg in data set [11]. Further, the Vmax/Km in [12] was determined as 2900 µL/min/mg.
